Each block holds one compound with its values, some of them ahead of it.
Assays:
[1] = target: HuR (Recombinant Human Elav-like protein 1, ELAVL1/HuR) (Homo sapiens, UniProt Q15717); assay: fluorescence anisotropy, displacement of pri-miR-7-1 CTL 6-FAM RNA from purified recombinant HuR; RP-CONA in HeLa extracts gave IC50 […]; assay type: binding
[2] = system: mCherry-HuR (human (HeLa HuR KO cells; HuR species implied)?); assay: RP-CONA (on-bead RNA pull-down, confocal imaging); conditions: Anisotropy: phosphate buffer pH 7.5, 25 mM MgCl (so in the source), 250 mM NaCl, 0.1% Tween 20, 5 mM DTT, temperature not stated, RP-CONA: cell extract on …
[3] = system: HuR (ELAV-like protein 1), recombinant (human); assay: fluorescence anisotropy; conditions: Anisotropy: phosphate buffer pH 7.5, 25 mM MgCl (so in the source), 250 mM NaCl, 0.1% Tween 20, 5 mM DTT, temperature not stated; RP-CONA: cell extract on …

Chain of HuR (Recombinant Human Elav-like protein 1, ELAVL1/HuR) (Q15717 2-326): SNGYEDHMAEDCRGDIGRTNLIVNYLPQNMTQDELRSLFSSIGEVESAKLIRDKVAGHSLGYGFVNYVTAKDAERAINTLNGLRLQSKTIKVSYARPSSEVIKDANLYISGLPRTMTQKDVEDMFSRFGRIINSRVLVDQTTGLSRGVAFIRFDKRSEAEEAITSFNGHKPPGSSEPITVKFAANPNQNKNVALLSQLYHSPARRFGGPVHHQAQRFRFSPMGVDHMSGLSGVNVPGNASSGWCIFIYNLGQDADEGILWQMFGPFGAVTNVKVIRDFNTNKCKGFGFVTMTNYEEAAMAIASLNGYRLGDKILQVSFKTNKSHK

IC50 [1]: 19 µM
Compound: CC1=NN(c2ccc(C)c(C)c2)C(=O)/C1=N\Nc1cccc(-c2cccc(C(=O)O)c2)c1O [E20, Eltrombopag]

Compound: pri-miR-7 CTL (pri-miR-7-6-FAM), RP-CONA
binding signal ([2]; 20 uM Eltrombopag): 80 % inhibition | IC50 ([2]; IC50 is of Eltrombopag (0-50 uM) inhibiting the complex, not HuR affinity): 5.9 µM

Compound: pri-miR-7-1-6-FAM CTL, anisotropy
IC50 [3]: 19 µM
